Source: patent US20240343810A1 (published 2024)
Values belong to the binder of their own block, whether it stands above or below them.

Legend:
[1] = target: T1, human ICOS expressed on cells (human, UniProt Q9Y6W8 21-199); assay: Flow cytometry on CHO-S human ICOS cells, anti-human IgG AF647, N=3
T1 construct: also called CHO-S cells transfected with human ICOS; hICOS
T1 sequence: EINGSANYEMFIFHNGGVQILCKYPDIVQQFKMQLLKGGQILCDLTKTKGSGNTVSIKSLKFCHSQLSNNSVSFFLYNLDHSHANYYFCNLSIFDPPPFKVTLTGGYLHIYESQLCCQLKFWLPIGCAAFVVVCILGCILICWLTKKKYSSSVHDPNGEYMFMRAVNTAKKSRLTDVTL
Experimental: (§1) CHO—S cells transfected with either human ICOS or mouse ICOS were resuspended in FACS buffer (PBS+1% w/v BSA+0.1% w/v sodium azide) and transferred to a 96-well V-bottom plate (Greiner) at a density of 1×10⁵ cells per well. mAb and mAb² were titrated in FACS buffer, 1 in 3 dilution across 11 points from a starting working concentration of 400 nM. Plates were centrifuged at 300×g for 3 minutes, supernatant discarded and 50 μL mAb or mAb² solution were added to cells and incubated at 4° C. for 1 hour. Cells were washed with 150 μL of PBS and centrifuged at 300×g for 3 minutes, supernatant was discarded and cell pellet resuspended in 150 μL PBS added. This wash step was repeated twice. Bound mAb or mAb² was detected by addition of 50 μL of anti-human 647 (Jackson ImmunoResearch) diluted to 3 ug/ml in FACS buffer. Cells were incubated for 1 hour at 4° C. in the dark. Cells were washed with 150 μL of PBS and centrifuged at 300 g for 3 minutes, supernatant was discarded and cell pellet resuspended in 150 μL PBS added. This wash step was repeated twice. Cells were fixed with 25 μL 4% v/v paraformaldehyde, incubated for 20 minutes at 4° C., cells were pelleted by centrifugation at 300×g and the supernatant discarded. […] AlexaFluor 647 signal intensity (geometric mean) was measured by flow cytometry using a Beckman Coulter CytoFLEX instrument.

[2] = target: T2, mouse PD-L1 expressed on CHO cells (mouse, UniProt Q9EP73 19-290); assay: Flow cytometry on CHO mouse PD-L1 cells (sentence prints 'human PD-L1')
T2 construct: also called CHO-S cells transfected with mPD-L1; CHO mouse PD-L1

[3] = target: T3, human ICOS-mFc (Chimerigen) (human, UniProt Q9Y6W8 21-140); assay: HTRF, human ICOS-mFc, competitor human B7-H2-Alexa 647, average
T3 construct: Bought; also called recombinant human ICOS protein; hICOS; not shown: mouse Fc of the bought fusion
T3 sequence: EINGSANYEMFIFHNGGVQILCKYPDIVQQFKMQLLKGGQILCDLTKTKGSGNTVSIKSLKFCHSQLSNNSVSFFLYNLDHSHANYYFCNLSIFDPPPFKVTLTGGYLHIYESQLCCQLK
Experimental: (§2) 5 μl of human ICOS-mFc (Chimerigen) at 20 nM (5 nM final) or 5 ul of mouse ICOS-mFc (Chimerigen) at 4 nM (1 nM final) were added to relevant assay wells. Plate was incubated for 1 hour (hr) at room temperature (RT).
(§3) After incubation, assay was read on Envision plate reader (Perkin Elmer) using a standard HTRF protocol. 620 nm and 665 nm channel values were exported to Microsoft Excel and % Delta-F and % Neutralisation calculations performed. Titration curves and IC50 values [M] were plotted using Graphpad (Prism). IC50 values were calculated by first transforming the data using equation X=Log(X). The transformed data was then fitted using nonlinear regression, using fitting algorithm, log (inhibitor) vs. response—variable slope (four parameters).

[4] = target: T4, mouse ICOS expressed on CHO cells (mouse, UniProt Q9WVS0 21-200); assay: Flow cytometry on CHO-S mouse ICOS cells, anti-human IgG AF647, mean
T4 construct: also called CHO-S cells transfected with mouse ICOS; mICOS
T4 sequence (looked up): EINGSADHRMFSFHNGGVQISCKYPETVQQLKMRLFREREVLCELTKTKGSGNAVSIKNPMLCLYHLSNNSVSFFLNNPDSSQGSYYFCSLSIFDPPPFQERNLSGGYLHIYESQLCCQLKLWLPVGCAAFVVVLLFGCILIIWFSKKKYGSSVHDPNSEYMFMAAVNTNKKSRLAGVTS
Experimental: as §1

[5] = target: T1, human ICOS expressed on cells; assay: cell-based or functional assay
[6] = target: T5, mouse ICOS-mFc (Chimerigen) (mouse, UniProt Q9WVS0 21-141, limits assumed); assay: HTRF, mouse ICOS-mFc, competitor mouse B7-H2-Alexa 647, n2
T5 construct: Bought; also called recombinant mouse ICOS protein; mICOS; not shown: mouse Fc of the bought fusion
T5 sequence: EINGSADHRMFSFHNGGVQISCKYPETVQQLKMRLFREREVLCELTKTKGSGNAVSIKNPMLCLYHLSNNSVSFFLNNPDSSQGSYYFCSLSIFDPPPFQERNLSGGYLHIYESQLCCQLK
Experimental: as §2, §3

[7] = target: T5, mouse ICOS-mFc (Chimerigen); assay: HTRF, mouse ICOS-mFc, competitor mouse B7-H2-Alexa 647, n1
Experimental: as §2, §3

T2 sequence (Q9EP73 19-290 limits assumed): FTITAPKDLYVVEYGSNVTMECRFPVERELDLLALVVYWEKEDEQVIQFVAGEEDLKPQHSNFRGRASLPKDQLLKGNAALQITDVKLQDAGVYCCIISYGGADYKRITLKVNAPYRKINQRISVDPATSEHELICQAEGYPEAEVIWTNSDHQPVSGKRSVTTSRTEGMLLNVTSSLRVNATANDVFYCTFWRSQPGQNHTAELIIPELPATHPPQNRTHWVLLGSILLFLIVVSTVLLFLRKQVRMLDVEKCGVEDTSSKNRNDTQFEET

EC50 [1]: 19700 pM
binding result [2]: no binding (tested: 22 nM)
IC50 [3]: 1470 pM
EC50 [4]: 16900 pM
EC50 of ADCC (specific dye release), ICOS-transfected CCRF-CEM + NK cells, Donor 326 [5]: 42.6 pM
EC50 of ADCC (specific dye release), ICOS-transfected CCRF-CEM + NK cells, Donor 334 [5]: 20.5 pM
EC50 of ADCC (specific dye release), ICOS-transfected CCRF-CEM + NK cells, Donor 341 [5]: 7.6 pM
EC50 of ADCC (specific dye release), ICOS-transfected CCRF-CEM + NK cells, column 'Median' [5]: 23.6 pM
IC50 [6]: 8910 pM
IC50 [7]: 7980 pM
B1: STIM001 (antibody, human IgG1, kappa)
heavy: not shown
light: DIVMTQSPLSLPVTPGEPASISCRSSQSLLHSNEYNYLDWYLQKPGQSPQLLIFLGSNRASGVPDRFSGSGSGTDFTLKITRVEAEDVGIYYCMQSLQTPLTFGGGTKVEIKRTVAAPSVFIFPPSDEQLKSGTASVVCLLNNFYPREAKVQWKVDNALQSGNSQESVTEQDSKDSTYSLSSTLTLSKADYEKHKVYACEVTHQGLSSPVTKSFNRGEC
notes: Anti-ICOS monospecific antibody, tested as human IgG1; also called STIM001 monoclonal IgG1 antibody

EC50 [1]: 4480 pM
binding result [2]: no binding (tested: 22 nM)
IC50 [3]: 530 pM
EC50 [4]: 5420 pM
EC50 of ADCC (specific dye release), ICOS-transfected CCRF-CEM + NK cells, Donor 326 [5]: 21.2 pM
EC50 of ADCC (specific dye release), ICOS-transfected CCRF-CEM + NK cells, Donor 334 [5]: 3.7 pM
EC50 of ADCC (specific dye release), ICOS-transfected CCRF-CEM + NK cells, Donor 341 [5]: 6.7 pM
EC50 of ADCC (specific dye release), ICOS-transfected CCRF-CEM + NK cells, column 'Median' [5]: 10.5 pM
IC50 [6]: 140 pM
IC50 [7]: 870 pM
B2: STIM003 (antibody, human IgG1, kappa)
heavy: not shown
light: EIVLTQSPGTLSLSPGERATLSCRASQSVSRSYLAWYQQKRGQAPRLLIYGASSRATGIPDRFSGDGSGTDFTLSISRLEPEDFAVYYCHQYDMSPFTFGPGTKVDIKRTVAAPSVFIFPPSDEQLKSGTASVVCLLNNFYPREAKVQWKVDNALQSGNSQESVTEQDSKDSTYSLSSTLTLSKADYEKHKVYACEVTHQGLSSPVTKSFNRGEC
notes: Anti-ICOS monospecific antibody, tested as human IgG1; also called STIM003 monoclonal IgG1 antibody
